Test: yeast display, Sf9 membrane polyspecificity reagent, FACS + sequencing; frameworks hold sequencing errors
Summary of the method: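 Sorting gates, low and high (top ~1%), were placed on anti-HA fluorescence to track expression and on streptavidin fluorescence to track reagent binding. A clone's polyreactivity label is taken from the gate it came out of. The reagent was 10% biotinylated, detergent-solubilized Sf9 membrane, applied for 1 hour at 4 °C to galactose-induced yeast display cells.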

| Sequence | polyreactivity (PSR sort gate) |
| --- | --- |
| QDQLVESGGGLVQAGGSLRLSCAASGSIFWGYDMGWYRQAPGKEMELVARISYSGGSTSYADSVKGRFTISRDNAKNTVYLQMNSLKPEDTAVYYCAADEGGFWWTYPYDSWGQGTQVTVSS | low polyreactivity |
| QDQLVESGGGLVQAGGSLRLSCAASGSIFYVNTMGWYRQAHGKERELVADISSGDSTYYADSVKGRFTISRDNAKNTVYLQMNSLKPEDTAVYYCIADVYSWVSGKEGDYWGQGTQVTVSS | low polyreactivity |
| QDQLVESGGGLVQAGGSLRLSCAASGSIIPFYAMGWYRQAPGKERELVAAITYSGGSTFYADSVKGRFTISRDNAKNTVYLQMNSLKPEDTAVYYCNAVWRFGSSKYYYWGQGTQVTVSS | high polyreactivity |
| QDQLVESGGGLVQAGGSLRLSCAASGSIIVRNAMGWYRQAPGKERELVAAISRSGSSTYYADSVKGRFTISRDNAKITVFCQMNSLKPEDTAVYYCAKRRPALRWIYYYWGQGTQVTVSS | high polyreactivity |
| QDQLVESGGGLVQAGGSLRLSCAASGSIIYAYAMGWYRQAPGKERELVAAISWTGGSTYYADSVKGRFTISRDNAKNTVYLQMNCLKPEDTAVYYCAATYYQVASFYVTRYDYWGQGTQVTVSS | low polyreactivity |
| QDQLVESGGGLVQAGGSLRLSCAASGSNFRFNAMGWDTQAPGKEREFDAANSRSGGRTYYADSVKGRFRISRDNAKNTVYFQMNCLKPEDTAVFYCNAVWRFPIGRSAPRYDYWGQGTQVTVSS | high polyreactivity |
| QDQLVESGGGLVQAGGSLRLSCAASGSTDYTYDMGWYRQAPGKERELVASITSGGSTNYADSVKGRFTISRDNAKNTVYFQMNSVKPQDTAVYYCAVGTYTIYSGTLYDYKYYWGQGTQVTVSS | low polyreactivity |
| QDQLVESGGGLVQAGGSLRLSCAASGSTFGYARGWYRQAPGKERELVAAITSTGGSTYYADSVKGRFTISRDNAKNTVYLQMNSLKPEDTAVYYCAAQVGRVYVVYPVYKYGYWGQGTQVTVSS | high polyreactivity |
| QDQLVESGGGLVQAGGSLRLSCAASGSTFPLYAMGSYREAPGKERELVADITVSGGSTYYADSVKGRFTISRDNAKNTVYLQMNSLNPEDTAVYYCNADDRSPFPDYWWYPYDYDYGGQGTQVTVSS | low polyreactivity |
| QDQLVESGGGLVQAGGSLRLSCAASGSTFPPYAMGWNRQAPGKERELVDTSTRIGGSTYYADSVKGRFTISRDNAKKTVYLQKNSLKPEDTALYYCTARRYQSYRYYYWGQGTQVTVSS | high polyreactivity |
| QDQLVESGGGLVQAGGSLRLSCAASGSTFSRNAMGWYRQAPGKERELVAAISWRGGRTYYADSVKGRFTISRDNAKNTVYLQMNSLKPEDTAVYYCAAEHKYRYDYWGQGTQVTVSS | low polyreactivity |
| QDQLVESGGGLVQAGGSLRLSCAASGSTFTYYAMGWYRQAPGKERELVAAIRNSDGTTYYADSVKGRFTLSRDTAKFTVYLQMNSLKPEDTAVYYCAAGPRGRWSTYDYWGQGTQVNVSS | low polyreactivity |
| QDQLVESGGGLVQAGGSLRLSCAASGSTFYIYAMGWYRQAPGQERELVARISGSRGSTYYADSVKGRFTISRDNAKNTVYLQMNSLKPEDTAVYYCAADDIYNYYQYYAFPYYRYDYWGQGTQVTVSS | low polyreactivity |
| QDQLVESGGGLVQAGGSLRLSCAASGSTLRGYAMGWYRQAPGKEREFVASITSSGSRTYADSVKGRFTISRDNAKNTVYLQMNSLKPEDTAVYYCAANRWPLKGYTSRYWGYWYNYWGQGTQVTVSS | high polyreactivity |
| QDQLVESGGGLVQAGGSLRLSCAASGTIFRGYTMGWYRQAPGKERELVAAISSSGGRTHYADSVKGRFTISRDNAKNTVYLQMNSLKPEDSAVYYCAADYYRTPKSGSSGLDYWGQGTQVTLSS | low polyreactivity |
| QDQLVESGGGLVQAGGSLRLSCAASGYIFRYYAMGWYRQAPGKERELVAAISWNGGRTYYADSVKGRFTISRDNAKNTVYLQMNSLKPEDTAVYYCNTYWDGAREYDYWGQGTQVTVSS | high polyreactivity |
| QDQLVESGGGLVQAGGSLRLSCAASGYIFSTYAMGWYRQAPGKERELVAAISSSGGSTYYADSVKGRFTISRDNAKNTVFLQMNSLKPEDTAVYYCYAGKHVRQRYDHWGQGTQVSVSS | high polyreactivity |

Reference: the nanobody polyreactivity screen of Harvey et al. (2022)
